Measurements taken from the supplement of paper PMC9112550, “Optimization of the antimicrobial peptide Bac7 by deep mutational scanning” (BMC Biology, 2022).

System: Escherichia coli TOP10
Experiment: shrunken log2 fold change of peptide-encoding DNA abundance (4.5 h post-induction vs induction); higher = less antimicrobial activity (less host growth inhibition)
Settings: time post-induction: 4.5 h; library: site-saturation at positions 5, 18, 19, 20
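Also: peptides expressed intracellularly from a pBAD plasmid library in pooled LB shake-flask culture, induced with 0.3% L-arabinose, DNA abundance read by NGS, three biological replicates, DESeq2 with apeglm shrinkage.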

Row | Sequence | shrunken log2 fold change
1 | RRIRARPPRLPRPRPRPDEMPRP | 0.546
2 | RRIRIRPPRLPRPRPRPAEPPRP | -0.21
3 | RRIRKRPPRLPRPRPRPREQPRP | 0.609
4 | RRIRARPPRLPRPRPRPPNSPRP | 0.136
5 | RRIRQRPPRLPRPRPRPLGWPRP | 0.8
6 | RRIRSRPPRLPRPRPRPAHLPRP | 0.27
7 | RRIRSRPPRLPRPRPRPKHEPRP | 0.076
8 | RRIRTRPPRLPRPRPRPGARPRP | 0.212
9 | RRIRYRPPRLPRPRPRPNSEPRP | -0.589
10 | RRIRARPPRLPRPRPRPSHHPRP | -0.309
11 | RRIRDRPPRLPRPRPRPKWDPRP | 0.488
12 | RRIRDRPPRLPRPRPRPFMYPRP | -0.212
13 | RRIRGRPPRLPRPRPRPGLAPRP | 1.25
14 | RRIRCRPPRLPRPRPRPMDVPRP | -0.00136
15 | RRIRLRPPRLPRPRPRPQLKPRP | -0.0336
16 | RRIRVRPPRLPRPRPRPQYIPRP | -0.655
17 | RRIRPRPPRLPRPRPRPREKPRP | 0.489
18 | RRIRERPPRLPRPRPRPEMLPRP | 0.0972
19 | RRIRGRPPRLPRPRPRPYGHPRP | 0.323
20 | RRIRSRPPRLPRPRPRPNAGPRP | 0.0362
21 | RRIRERPPRLPRPRPRPTVWPRP | 0.217
22 | RRIRFRPPRLPRPRPRPHFWPRP | -0.124
23 | RRIRQRPPRLPRPRPRPENWPRP | 0.284
24 | RRIRARPPRLPRPRPRPPTNPRP | 0.678
25 | RRIRPRPPRLPRPRPRPIYMPRP | -0.306

Row | Sequence | shrunken log2 fold change
26 | RRIRQRPPRLPRPRPRPLSRPRP | -0.0591
27 | RRIRYRPPRLPRPRPRPLVNPRP | -1.09
28 | RRIRNRPPRLPRPRPRPEGIPRP | 0.0204
29 | RRIRPRPPRLPRPRPRPAVWPRP | 0.602
30 | RRIRIRPPRLPRPRPRPGYLPRP | 2.69
31 | RRIRARPPRLPRPRPRPTLSPRP | 0.801
32 | RRIRYRPPRLPRPRPRPVTNPRP | -0.015
33 | RRIRTRPPRLPRPRPRPPYGPRP | -0.195
34 | RRIRWRPPRLPRPRPRPCSSPRP | -0.259
35 | RRIRHRPPRLPRPRPRPYGPPRP | -0.311
36 | RRIRERPPRLPRPRPRPYYHPRP | -1.58
37 | RRIRWRPPRLPRPRPRPLNGPRP | -0.0406
38 | RRIRYRPPRLPRPRPRPRQFPRP | -0.379
39 | RRIRKRPPRLPRPRPRPNIFPRP | -0.021
40 | RRIRGRPPRLPRPRPRPQYMPRP | -0.195
41 | RRIRSRPPRLPRPRPRPTKMPRP | 0.00603
42 | RRIRQRPPRLPRPRPRPKIYPRP | -0.277
43 | RRIRMRPPRLPRPRPRPFEQPRP | 0.0263
44 | RRIRPRPPRLPRPRPRPTCEPRP | 0.252
45 | RRIRDRPPRLPRPRPRPGMVPRP | 0.548
46 | RRIRDRPPRLPRPRPRPYRGPRP | -0.0122
47 | RRIRTRPPRLPRPRPRPNPIPRP | -0.157
48 | RRIRHRPPRLPRPRPRPWELPRP | -0.0835
49 | RRIRIRPPRLPRPRPRPGEEPRP | -0.0165
50 | RRIRYRPPRLPRPRPRPNFIPRP | -1.22

Row | Sequence | shrunken log2 fold change
51 | RRIRGRPPRLPRPRPRPPYGPRP | 0.341
52 | RRIRGRPPRLPRPRPRPMWLPRP | 0.25
53 | RRIRPRPPRLPRPRPRPGSMPRP | -0.149
54 | RRIRVRPPRLPRPRPRPIRHPRP | -0.112
55 | RRIRYRPPRLPRPRPRPFYFPRP | -0.961
56 | RRIRLRPPRLPRPRPRPHHVPRP | -0.272
57 | RRIRGRPPRLPRPRPRPDARPRP | 0.34
58 | RRIRARPPRLPRPRPRPIPYPRP | -0.0777
59 | RRIRRRPPRLPRPRPRPNMVPRP | -0.0449
60 | RRIRWRPPRLPRPRPRPGWCPRP | 0.362
61 | RRIRKRPPRLPRPRPRPQEEPRP | 0.0428
62 | RRIRSRPPRLPRPRPRPRFRPRP | 0.203
63 | RRIRMRPPRLPRPRPRPFSDPRP | -0.0199
64 | RRIRSRPPRLPRPRPRPFMYPRP | -0.513
65 | RRIRTRPPRLPRPRPRPWPIPRP | 0.00716
66 | RRIRSRPPRLPRPRPRPNADPRP | 0.113
67 | RRIRNRPPRLPRPRPRPCASPRP | -0.106
68 | RRIRPRPPRLPRPRPRPKWCPRP | 0.0741
69 | RRIRNRPPRLPRPRPRPLVAPRP | -0.124
70 | RRIRWRPPRLPRPRPRPWMIPRP | -0.0414
71 | RRIRLRPPRLPRPRPRPPHMPRP | -0.0106
72 | RRIRKRPPRLPRPRPRPWMQPRP | -0.0134
73 | RRIRGRPPRLPRPRPRPWWFPRP | -0.03
74 | RRIRYRPPRLPRPRPRPIYFPRP | 0.548
75 | RRIRMRPPRLPRPRPRPKFRPRP | 0.169

Row | Sequence | shrunken log2 fold change
76 | RRIRHRPPRLPRPRPRPLSSPRP | 0.0305
77 | RRIRARPPRLPRPRPRPTCQPRP | 0.431
78 | RRIRKRPPRLPRPRPRPDTWPRP | 0.35
79 | RRIRSRPPRLPRPRPRPAVTPRP | 0.293
80 | RRIRVRPPRLPRPRPRPIAEPRP | 0.127
81 | RRIRYRPPRLPRPRPRPPQYPRP | -0.795
82 | RRIRWRPPRLPRPRPRPVFFPRP | 0.238
83 | RRIRARPPRLPRPRPRPAAQPRP | 0.916
84 | RRIRCRPPRLPRPRPRPHFDPRP | 0.0458
85 | RRIRNRPPRLPRPRPRPKITPRP | -0.367
86 | RRIRDRPPRLPRPRPRPNWPPRP | 0.0913
87 | RRIRFRPPRLPRPRPRPLEDPRP | -0.0439
88 | RRIRPRPPRLPRPRPRPFATPRP | 0.0676
89 | RRIRERPPRLPRPRPRPSYSPRP | -0.147
90 | RRIRGRPPRLPRPRPRPRRYPRP | 0.0823
91 | RRIRFRPPRLPRPRPRPYKLPRP | -0.438
92 | RRIRKRPPRLPRPRPRPSYVPRP | -0.294
93 | RRIRWRPPRLPRPRPRPSKFPRP | -0.0435
94 | RRIRQRPPRLPRPRPRPHHDPRP | -0.000328
95 | RRIRKRPPRLPRPRPRPLTLPRP | 0.0103
96 | RRIRTRPPRLPRPRPRPVAEPRP | 0.191
97 | RRIRCRPPRLPRPRPRPCQMPRP | -0.609
98 | RRIRVRPPRLPRPRPRPGPIPRP | 0.0476
99 | RRIRTRPPRLPRPRPRPHPCPRP | -0.339
100 | RRIRERPPRLPRPRPRPNMNPRP | -0.808

Row | Sequence | shrunken log2 fold change
101 | RRIRSRPPRLPRPRPRPQPVPRP | 0.0573
102 | RRIRLRPPRLPRPRPRPFRTPRP | -0.0778
103 | RRIRERPPRLPRPRPRPDILPRP | 0.0234
104 | RRIRKRPPRLPRPRPRPETPPRP | 1.89
105 | RRIRKRPPRLPRPRPRPCVTPRP | 0.0632
106 | RRIRKRPPRLPRPRPRPRSGPRP | 0.183
107 | RRIRYRPPRLPRPRPRPWPSPRP | -0.00149
108 | RRIRARPPRLPRPRPRPAEEPRP | 0.697
109 | RRIRDRPPRLPRPRPRPGIYPRP | -0.15
110 | RRIRPRPPRLPRPRPRPTKTPRP | 0.132
111 | RRIRARPPRLPRPRPRPHKGPRP | 0.187
112 | RRIRERPPRLPRPRPRPPLSPRP | -0.212
113 | RRIRERPPRLPRPRPRPCTDPRP | -0.169
114 | RRIRYRPPRLPRPRPRPMMWPRP | 0.00408
115 | RRIRMRPPRLPRPRPRPEHSPRP | 0.234
116 | RRIRCRPPRLPRPRPRPTIDPRP | 0.0362
117 | RRIRPRPPRLPRPRPRPEYPPRP | 0.045
118 | RRIRRRPPRLPRPRPRPVKLPRP | -0.0474
119 | RRIRTRPPRLPRPRPRPHWYPRP | -0.135
120 | RRIRTRPPRLPRPRPRPFLSPRP | -0.195
121 | RRIRHRPPRLPRPRPRPSNSPRP | -0.798
122 | RRIRDRPPRLPRPRPRPIWWPRP | 0.498
123 | RRIRGRPPRLPRPRPRPYLRPRP | -0.0169
124 | RRIRVRPPRLPRPRPRPPQNPRP | 0.188
125 | RRIRSRPPRLPRPRPRPTWTPRP | 0.764
